This is an account of results in article PMC8770954 (Frontiers in Immunology, 2021).

The target in assay [1] is RhDH677.3 IgG1 (rhesusized variant of human DH677.3) (rhesus macaque (Macaca mulatta)). Kind of assay: SPR; imaging SPR (IBIS MX96); IgG immobilised on a carboxymethyldextran sensor (CMD200M) by carbodiimide chemistry with a Continuous Flow Microspotter, printed at 300 and 150 nM; soluble receptor as analyte from 20 uM, 1:3 over 8 points; 5 min association and 5 min dissociation; equilibrium KD (Scrubber 2). The conditions noted are these: both partners purified.

The target in assay [2] is Rh7B2 IgG1 (rhesusized variant of human 7B2) (rhesus macaque (Macaca mulatta)). Described as above. To be noted: both partners purified.
Assay [3] has as its target RhDH827 IgG1 (rhesusized variant of human DH827) (rhesus macaque (Macaca mulatta)). The assay is described as above. To be noted: both partners purified.
Assay [4] addresses RM JR4 IgG1 (rhesus macaque mAb, C1C2 Cluster A region) (rhesus macaque (Macaca mulatta)). The description is as above. To be noted: both partners purified.
The target of assay [5] is T1, Env of SHIV SF162.P3 on infected A66 cells (SHIV SF162.P3 Env (stand-in: parental …, UniProt P19550, strain)).
T1 construct: source: SHIV-infected A66 cells, on the cell surface
Kind of assay: flow cytometry on cells. To be noted: one partner purified.

Assay [6] addresses T2, Env of HIV-1 IMC CH505 on infected CEM.NKR_(CCR5) cells (HIV-1 subtype C CH505 (703010505), strain).
T2 construct: source: HIV-1 IMC-infected CEM.NKR_(CCR5) cells, on the cell surface
Kind of assay: flow cytometry on cells. The conditions noted are these: one partner purified.

The target in assay [7] is T3, Env of HIV-1 IMC 1086.C on infected CEM.NKR_(CCR5) cells (HIV-1 subtype C 1086.C, UniProt C6G099, strain).
T3 construct: also called HIV-1 1086; source: HIV-1 IMC-infected CEM.NKR_(CCR5) cells, on the cell surface
Kind of assay: flow cytometry on cells. To be noted: one partner purified.

Assay [8] deals with T4, Env of HIV-1 IMC SF162 on infected CEM.NKR_(CCR5) cells (HIV-1 subtype B SF162, UniProt P19550, strain).
T4 construct: source: HIV-1 IMC-infected CEM.NKR_(CCR5) cells, on the cell surface
Kind of assay: flow cytometry on cells. To be noted: one partner purified.

In assay [9] the target is synthetic gp41 peptide (residues 596-606) with C-terminal amidation (HIV-1 subtype B BaL, UniProt Q6TAP7).
For assay [10], the target named is T5, monomeric full length single chain (FLSC), a covalent dimer of gp120BaL and CD4 (HIV-1 subtype B BaL (gp120); Homo …, UniProt Q6TAP7;P01730).
T5 construct: gp120 of HIV-1 BaL; CD4, domain 1 and 2
Kind of assay: SPR; Biacore 3000; IgG immobilized on a protein A chip, antigen flowed over (FLSC 6.25-200 nM; gp41 peptide 6.4-25.6 μM; V2 peptide 12.5-50 μM); 10 mM HEPES pH 7.5, 150 mM NaCl, 0.05% Tween 20, 25 °C; 1:1 Langmuir model. To be noted: both partners purified.

Sequence of RM JR4 IgG1 (rhesus macaque mAb, C1C2 Cluster A region) (rhesus macaque (Macaca mulatta)) (heavy, as listed by the source, chain 1 of 2): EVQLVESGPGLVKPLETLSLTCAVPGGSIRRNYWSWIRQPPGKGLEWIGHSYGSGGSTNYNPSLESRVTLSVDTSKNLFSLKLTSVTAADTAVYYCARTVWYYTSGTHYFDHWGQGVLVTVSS
Sequence of RM JR4 IgG1 (rhesus macaque mAb, C1C2 Cluster A region) (rhesus macaque (Macaca mulatta)) (light, as listed by the source, chain 2 of 2): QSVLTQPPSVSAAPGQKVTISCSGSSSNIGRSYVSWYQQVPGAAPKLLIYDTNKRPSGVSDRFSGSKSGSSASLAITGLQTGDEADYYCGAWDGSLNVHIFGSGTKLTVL

B1: human FcγRIIa (R131) (receptor)
chain: QAAAPPKAVLKLEPPWINVLQEDSVTLTCQGARSPESDSIQWFHNGNLIPTHTQPSYRFKANNNDSGEYTCQTGQTSLSDPVHLTVLSEWLVLQTPHLEFQEGETIMLRCHSWKDKPLVKVTFFQNGKSQKFSRLDPTFSIPQANHSHSGDYHCTGNIGYTLFSSKPVTITVQVPSMGSSSPMG
Turning to B1, the dissociation constant Kd was found to be 4600 nM in assay [1], 2900 nM in assay [2], 4600 nM in assay [3] and 2000 nM in assay [4].

B2: Rh7B2 IgG1 (antibody, V domains shown)
VH: EVQLVESGGGLVQPGGSLRLSCAASGFTFTEYYMSWVRQAPGKGLEWVSYISKNGEYSYYADSVKGRFTISRDNAKNSLSLQMSSLRAEDTAVYYCTRADGLTYFSELLQYIFDLWGQGVLVTVSS
VL: DIVMTQSPDSLAVSLGERVTINCKSSQTLLYSSNNRHSIAWYQQKPGQAPKLLIYWASMRLSGVPNRFSGSGSGTDFTLTISGLQAEDVAVYYCHQYSSHPPTFGQGTKVEIK
notes: also called rhesusized 7B2
Regarding B2, the binding result in [5], in assay [6], in assay [7] and in assay [8] was “binds” in each case.

B3: rhesus macaque FcγRIIIa-1 (I158) (receptor)
chain: EDLPKAVVFLEPQWYRVLEKDSVTLKCQGAYSPEDNSTRWFHNESLISSQTSSYFIAAARVNNSGEYRCQTSLSTLSDPVQLEVHIGWLLLQAPRWVFKEEESIHLRCHSWKNTLLHKVTYLQNGKGRKYFHQNSDFYIPKATLKDSGSYFCRGLIGSKNVSSETVNITITQDLAVSSISSFFPPG
As for B3, the Kd came to 1100 nM in [1], 1000 nM in [2], 1300 nM in assay [3] and 1100 nM in assay [4].

B4: rhesus macaque FcγRIIIa-3 (V158) (receptor)
chain: EDLPKAVVFLEPQWYRVLEKDSVTLKCQGAYSPEDNSTRWFHNESLISSQTSSYFIAAARVNNSGEYRCQTSLSTLSDPVQLEVHIGWLLLQAPRWVFKEEESIHLRCHSWKNTLLHKVTYLQNGKGRKYFHQNSDFYIPKATLKDSGSYFCRGLVGSKNVSSETVNITITQDLAVSSISSFFPPG
modifications: N-glycosylated soluble ectodomain; limits from the UniProt extracellular domain. Mature 158 = precursor 176 (offset 18). Only V158 (against I158 in variant 1) is printed; other allelic differences of
For B4, the Kd in assay [1] was 1500 nM; in [2], 1600 nM; in assay [3] it was 1900 nM; in [4], 1600 nM.

B5: RhDH827 IgG1 (antibody, V domains shown)
VH: EVQLVESGGGLVQPGGSLRLSCAASGFTFSNCAMHWVRQAPGKGLEWVAVISYHGSNKYYADYVKGRFTISRDNSKNMLYLQMNNLKLEDTAVYYCAREGGAPSGWALDYWGQGVLVTVSS
VL: SYELTQSPSVSVSPGQPASITCSGDKLGDKYACWYQQKPGQVPVLVIYEDTKRPSGIPERFSGSNSGNTATLTISGVEAGDEADYYCQAWDSITHVVFGGGTRLTVL
notes: also called rhesusized DH827
Turning to B5, the binding result in [5], in assay [6], in [7] and in assay [8] was “binds” throughout.

B6: 7B2 (antibody, V domains shown)
VH: QVQLVQSGGGVFKPGGSLRLSCEASGFTFTEYYMTWVRQAPGKGLEWLAYISKNGEYSKYSPSSNGRFTISRDNAKNSVFLQLDRLSADDTAVYYCARADGLTYFSELLQYIFDLWGQGARVTVSS
VL: ETTLTQSPDSLAVSPGERATIHCKSSQTLLYSSNNRHSIAWYQQRPGQPPKLLLYWASMRLSGVPDRFSGSGSGTDFTLTINNLQAEDVAIYYCHQYSSHPPTFGHGTRVELR
With B6, in assay [9], the binding result is listed as “binds”.

B7: DH827 (human IgG1) (antibody, V domains shown)
VH: EVQLVESGGGVVQPGRSLRLSCAASGFTFSNCAMHWVRQAPGKGLEWVAVISYHGSNKYYADYVKGRFTISRDNSKSTVYLQMNSPRAEDTAVYYCAKEGGAPSGWALDYWGQGTLVTVSS
VL: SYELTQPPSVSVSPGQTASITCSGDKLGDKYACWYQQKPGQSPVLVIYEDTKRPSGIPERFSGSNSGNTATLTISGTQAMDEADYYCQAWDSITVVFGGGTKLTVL
notes: also called human DH827
Turning to B7, the binding result in assay [6], in assay [7] and in assay [8] was “binds” in each case.

B8: RhDH677.3 IgG1 (antibody, V domains shown)
VH: QVQLVQSGAEVKKPGASVKLSCKASGYTFTSYDINWVRQAPGQGLEWMGWMNPKTGNTGYAQKFQGRVTMTRDTSTSTAYMELSSLRSEDTAVYYCATYRIIAAVGYRYFQYWGQGALVTVSS
VL: AIQMTQSPSSLSASVGDKVTITCRASQGFGNYLAWYQQKPGKVPKLLIYAATTLQSEVPSRFSGSGSGTDFTLTISSLQPEDVATYYCQKYNSAPFTFGQGTRLEIK
notes: also called rhesusized DH677.3
For B8, the “fold change of KD against human DH677.3” value in assay [10] is around 8 fold. Further, the binding result in assay [5], in [6] and in assay [8] was “binds” throughout.
